Like-named read-outs stand apart in the source and are kept apart here.
Tests used:
CD22 [1] = target: T1, CD22 (UniProt P20273 20-847, limits assumed); test: cell-based or functional assay
CD22 [2] = target: T1, CD22; test: cell-based or functional assay; remark: listed apart in the source
CD22 [3] = target: T1, CD22; test: cell-based or functional assay; remark: listed apart in the source
CD22 [4] = target: T1, CD22; test: cell-based or functional assay; remark: listed apart in the source
[5] = target: T2, anti-GCN4 (52SR4 scFv) sCAR with IgG4m hinge; test: flow cytometry competition on CAR-T cells with the GCN4 CAR (SEQ ID NO. 74): 1 nM labelled GCN4 peptide (GCN4-AF488) as competitor, unlabelled peptide titrated, MFI of the labelled peptide read
T2 construct: disulfide dimer by western blot; also called short-dimeric sCAR; IgG4m sCAR
T2 chain: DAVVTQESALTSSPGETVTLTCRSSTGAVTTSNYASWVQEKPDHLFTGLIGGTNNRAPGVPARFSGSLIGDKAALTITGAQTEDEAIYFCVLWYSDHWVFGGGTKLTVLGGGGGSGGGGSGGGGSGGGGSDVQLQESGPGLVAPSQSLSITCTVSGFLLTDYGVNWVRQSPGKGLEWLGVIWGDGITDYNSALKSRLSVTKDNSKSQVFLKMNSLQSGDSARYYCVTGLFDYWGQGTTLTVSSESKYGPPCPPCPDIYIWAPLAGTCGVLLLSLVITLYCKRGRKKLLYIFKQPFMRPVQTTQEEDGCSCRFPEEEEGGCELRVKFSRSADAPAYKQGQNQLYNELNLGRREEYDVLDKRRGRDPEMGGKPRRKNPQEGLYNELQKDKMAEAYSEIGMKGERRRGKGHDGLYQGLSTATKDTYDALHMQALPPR
Excerpt: Un-labelled peptide binding efficiency was indirectly shown by measuring the mean fluorescence intensity (MFI) staining with the labelled peptide.
Cells were then washed twice with cold PBS to remove the free labelled peptide before being analyzed using the BD Accuri flow cytometer.

CD22 [6] = target: T1, CD22; test: cell-based or functional assay; remark: listed apart in the source
CD22 [7] = target: T1, CD22; test: cell-based or functional assay; remark: listed apart in the source

B1: anti-CD22 (clone hLL2) IgG HCCT switch (antibody)
light: DIQLTQSPSSLSASVGDRVTMSCKSSQSVLYSANHKNYLAWYQQKPGKAPKLLIYWASTRESGVPSRFSGSGSGTDFTFTISSLQPEDIATYYCHQYLSSWTFGGGTKLEIKRTVAAPSVFIFPPSDEQLKSGTASVVCLLNNFYPREAKVQWKVDNALQSGNSQESVTEQDSKDSTYSLSSTLTLSKADYEKHKVYACEVTHQGLSSPVTKSFNRGEC
heavy: QVQLVQSGAEVKKPGSSVKVSCKASGYTFTSYWLHWVRQAPGQGLEWIGYINPRNDYTEYNQNFKDKATITADESTNTAYMELSSLRSEDTAFYFCARRDITTFYWGQGTTVTVSSARTKGPSVFPLAPSSKSTSGGTAALGCLVKDYFPEPVTVSWNSGALTSGVHTFPAVLQSSGLYSLSSVVTVPSSSLGTQTYICNVNHKPSNTKVDKKVEPKSCDKTHTCPPCPAPPVAGPSVFLFPPKPKDTLMISRTPEVTCVVVDVSHEDPEVKFNWYVDGVEVHNAKTKPREEQYNSTYRVVSVLTVLHQDWLNGKEYKCKVSNKGLPSSIEKTISKAKGQPREPQVYTLPPSRDELTKNQVSLTCLVKGFYPSDIAVEWESNGQPENNYKTTPPVLDSDGSFFLYSKLTVDKSRWQQGNVFSCSVMHEALHNHYTQKSLSLSPGKGGGGSNYHLENEVARLKKL
- EC50 of cytotoxicity (CD22 [1]): 15.3 pM
- cytotoxicity at 0.06 pM (CD22 [2]): 0.25
- cytotoxicity at 0.30 pM (CD22 [2]): -1.05
- cytotoxicity at 1.52 pM (CD22 [2]): -4.45
- cytotoxicity at 7.62 pM (CD22 [2]): 8.18
- cytotoxicity at 38.10 pM (CD22 [2]): 20.9
- cytotoxicity at 190.48 pM (CD22 [2]): 31.8
- cytotoxicity at 4762.00 pM (CD22 [2]): 24.1

B2: anti-CD22 (clone hLL2) IgG LCCT switch (antibody)
light: DIQLTQSPSSLSASVGDRVTMSCKSSQSVLYSANHKNYLAWYQQKPGKAPKLLIYWASTRESGVPSRFSGSGSGTDFTFTISSLQPEDIATYYCHQYLSSWTFGGGTKLEIKRTVAAPSVFIFPPSDEQLKSGTASVVCLLNNFYPREAKVQWKVDNALQSGNSQESVTEQDSKDSTYSLSSTLTLSKADYEKHKVYACEVTHQGLSSPVTKSFNRGECGGGGSNYHLENEVARLKKL
heavy: QVQLVQSGAEVKKPGSSVKVSCKASGYTFTSYWLHWVRQAPGQGLEWIGYINPRNDYTEYNQNFKDKATITADESTNTAYMELSSLRSEDTAFYFCARRDITTFYWGQGTTVTVSSARTKGPSVFPLAPSSKSTSGGTAALGCLVKDYFPEPVTVSWNSGALTSGVHTFPAVLQSSGLYSLSSVVTVPSSSLGTQTYICNVNHKPSNTKVDKKVEPKSCDKTHTCPPCPAPPVAGPSVFLFPPKPKDTLMISRTPEVTCVVVDVSHEDPEVKFNWYVDGVEVHNAKTKPREEQYNSTYRVVSVLTVLHQDWLNGKEYKCKVSNKGLPSSIEKTISKAKGQPREPQVYTLPPSRDELTKNQVSLTCLVKGFYPSDIAVEWESNGQPENNYKTTPPVLDSDGSFFLYSKLTVDKSRWQQGNVFSCSVMHEALHNHYTQKSLSLSPGK
- EC50 of cytotoxicity (CD22 [1]): 26.9 pM
- cytotoxicity at 0.06 pM (CD22 [2]): -2.8
- cytotoxicity at 0.30 pM (CD22 [2]): -7.88
- cytotoxicity at 1.52 pM (CD22 [2]): -6.59
- cytotoxicity at 7.62 pM (CD22 [2]): 0.95
- cytotoxicity at 38.10 pM (CD22 [2]): 14.1
- cytotoxicity at 190.48 pM (CD22 [2]): 24.4
- cytotoxicity at 952.40 pM (CD22 [2]): 25.4
- cytotoxicity at 4762.00 pM (CD22 [2]): 28.5

B3: anti-CD22 (clone hLL2) IgG CTBV switch (antibody)
light: DIQLTQSPSSLSASVGDRVTMSCKSSQSVLYSANHKNYLAWYQQKPGKAPKLLIYWASTRESGVPSRFSGSGSGTDFTFTISSLQPEDIATYYCHQYLSSWTFGGGTKLEIKRTVAAPSVFIFPPSDEQLKSGTASVVCLLNNFYPREAKVQWKVDNALQSGNSQESVTEQDSKDSTYSLSSTLTLSKADYEKHKVYACEVTHQGLSSPVTKSFNRGECGGGGSNYHLENEVARLKKL
heavy: QVQLVQSGAEVKKPGSSVKVSCKASGYTFTSYWLHWVRQAPGQGLEWIGYINPRNDYTEYNQNFKDKATITADESTNTAYMELSSLRSEDTAFYFCARRDITTFYWGQGTTVTVSSARTKGPSVFPLAPSSKSTSGGTAALGCLVKDYFPEPVTVSWNSGALTSGVHTFPAVLQSSGLYSLSSVVTVPSSSLGTQTYICNVNHKPSNTKVDKKVEPKSCDKTHTCPPCPAPPVAGPSVFLFPPKPKDTLMISRTPEVTCVVVDVSHEDPEVKFNWYVDGVEVHNAKTKPREEQYNSTYRVVSVLTVLHQDWLNGKEYKCKVSNKGLPSSIEKTISKAKGQPREPQVYTLPPSRDELTKNQVSLTCLVKGFYPSDIAVEWESNGQPENNYKTTPPVLDSDGSFFLYSKLTVDKSRWQQGNVFSCSVMHEALHNHYTQKSLSLSPGKGGGGSNYHLENEVARLKKL
- EC50 of cytotoxicity (CD22 [1]): 34.7 pM
- cytotoxicity at 0.06 pM (CD22 [2]): 4.45
- cytotoxicity at 0.30 pM (CD22 [2]): -3.82
- cytotoxicity at 1.52 pM (CD22 [2]): 5.34
- cytotoxicity at 7.62 pM (CD22 [2]): 7.92
- cytotoxicity at 190.48 pM (CD22 [2]): 29.8
- cytotoxicity at 952.40 pM (CD22 [2]): 28.6
- cytotoxicity at 4762.00 pM (CD22 [2]): 38

B4: anti-CD22 (clone hLL2) Fab LCCT switch (Fab)
light: DIQLTQSPSSLSASVGDRVTMSCKSSQSVLYSANHKNYLAWYQQKPGKAPKLLIYWASTRESGVPSRFSGSGSGTDFTFTISSLQPEDIATYYCHQYLSSWTFGGGTKLEIKRTVAAPSVFIFPPSDEQLKSGTASVVCLLNNFYPREAKVQWKVDNALQSGNSQESVTEQDSKDSTYSLSSTLTLSKADYEKHKVYACEVTHQGLSSPVTKSFNRGECGGGGSNYHLENEVARLKKL
heavy: QVQLVQSGAEVKKPGSSVKVSCKASGYTFTSYWLHWVRQAPGQGLEWIGYINPRNDYTEYNQNFKDKATITADESTNTAYMELSSLRSEDTAFYFCARRDITTFYWGQGTTVTVSSARTKGPSVFPLAPSSKSTSGGTAALGCLVKDYFPEPVTVSWNSGALTSGVHTFPAVLQSSGLYSLSSVVTVPSSSLGTQTYICNVNHKPSNTKVDKKVEPKSC
- EC50 of cytotoxicity (CD22 [3]): 132 pM
- cytotoxicity at 0.01 pM (CD22 [4]): -2.13
- cytotoxicity at 0.1 pM (CD22 [4]): -0.84
- cytotoxicity at 1 pM (CD22 [4]): -0.01
- cytotoxicity at 10 pM (CD22 [4]): 4.8
- cytotoxicity at 100 pM (CD22 [4]): 23.8
- cytotoxicity at 1000 pM (CD22 [4]): 49.6
- cytotoxicity at 10000 pM (CD22 [4]): 56.5

B5: anti-CD22 (clone hLL2) Fab HCCT switch (Fab, V domains shown)
VH: QVQLVQSGAEVKKPGSSVKVSCKASGYTFTSYWLHWVRQAPGQGLEWIGYINPRNDYTEYNQNFKDKATITADESTNTAYMELSSLRSEDTAFYFCARRDITTFYWGQGTTVTVSS
VL: DIQLTQSPSSLSASVGDRVTMSCKSSQSVLYSANHKNYLAWYQQKPGKAPKLLIYWASTRESGVPSRFSGSGSGTDFTFTISSLQPEDIATYYCHQYLSSWTFGGGTKLEIKR
- EC50 of cytotoxicity (CD22 [3]): 1340 pM
- cytotoxicity at 0.01 pM (CD22 [4]): 1.3
- cytotoxicity at 0.1 pM (CD22 [4]): 6.05
- cytotoxicity at 1 pM (CD22 [4]): 7.67
- cytotoxicity at 10 pM (CD22 [4]): 8.27
- cytotoxicity at 100 pM (CD22 [4]): 7.35
- cytotoxicity at 1000 pM (CD22 [4]): 25
- cytotoxicity at 10000 pM (CD22 [4]): 45.1

B6: anti-CD22 (clone hLL2) Fab LCNT switch (Fab, V domains shown)
VH: QVQLVQSGAEVKKPGSSVKVSCKASGYTFTSYWLHWVRQAPGQGLEWIGYINPRNDYTEYNQNFKDKATITADESTNTAYMELSSLRSEDTAFYFCARRDITTFYWGQGTTVTVSS
VL: DIQLTQSPSSLSASVGDRVTMSCKSSQSVLYSANHKNYLAWYQQKPGKAPKLLIYWASTRESGVPSRFSGSGSGTDFTFTISSLQPEDIATYYCHQYLSSWTFGGGTKLEIKR
- EC50 of cytotoxicity (CD22 [3]): 6560 pM

B7: anti-CD22 (clone hLL2) Fab NTBV switch (Fab, V domains shown)
VH: QVQLVQSGAEVKKPGSSVKVSCKASGYTFTSYWLHWVRQAPGQGLEWIGYINPRNDYTEYNQNFKDKATITADESTNTAYMELSSLRSEDTAFYFCARRDITTFYWGQGTTVTVSS
VL: DIQLTQSPSSLSASVGDRVTMSCKSSQSVLYSANHKNYLAWYQQKPGKAPKLLIYWASTRESGVPSRFSGSGSGTDFTFTISSLQPEDIATYYCHQYLSSWTFGGGTKLEIKR
- EC50 of cytotoxicity (CD22 [3]): 135 pM
- cytotoxicity at 0.01 pM (CD22 [4]): 1.52
- cytotoxicity at 0.1 pM (CD22 [4]): 2.19
- cytotoxicity at 1 pM (CD22 [4]): 4.2
- cytotoxicity at 10 pM (CD22 [4]): 2.07
- cytotoxicity at 1000 pM (CD22 [4]): -2.07
- cytotoxicity at 10000 pM (CD22 [4]): 1.5

Binder: AAAAENEVARLKKL [Peptide 5: AAAAENEVARLKKL]
- binding result [5]: no binding (tested: 10^3 nM)

Binder: NYHLENEVARLKAA [Peptide 7: NYHLENEVARLKAA]
- binding result [5]: binds

Binder: NYHLENEVARLKKA [Peptide 6: NYHLENEVARLKKA]
- binding result [5]: binds

Binder: NYHLENEVARLAAA [Peptide 8: NYHLENEVARLAAA]
- binding result [5]: binds

B8: anti-CD22 (clone hLL2) Fab CTBV2 switch (2 GGGGS linker) (Fab)
light: DIQLTQSPSSLSASVGDRVTMSCKSSQSVLYSANHKNYLAWYQQKPGKAPKLLIYWASTRESGVPSRFSGSGSGTDFTFTISSLQPEDIATYYCHQYLSSWTFGGGTKLEIKRTVAAPSVFIFPPSDEQLKSGTASVVCLLNNFYPREAKVQWKVDNALQSGNSQESVTEQDSKDSTYSLSSTLTLSKADYEKHKVYACEVTHQGLSSPVTKSFNRGECGGGGSGGGGSNYHLENEVARLKKL
heavy: QVQLVQSGAEVKKPGSSVKVSCKASGYTFTSYWLHWVRQAPGQGLEWIGYINPRNDYTEYNQNFKDKATITADESTNTAYMELSSLRSEDTAFYFCARRDITTFYWGQGTTVTVSSARTKGPSVFPLAPSSKSTSGGTAALGCLVKDYFPEPVTVSWNSGALTSGVHTFPAVLQSSGLYSLSSVVTVPSSSLGTQTYICNVNHKPSNTKVDKKVEPKSCGGGGSGGGGSNYHLENEVARLKKL
- cytotoxicity at 0.01 pM (CD22 [6]): 7.08
- cytotoxicity at 0.1 pM (CD22 [6]): 2.9
- cytotoxicity at 10 pM (CD22 [6]): 22.1
- cytotoxicity at 100 pM (CD22 [6]): 45.8
- cytotoxicity at 1000 pM (CD22 [6]): 45.8
- cytotoxicity at 10000 pM (CD22 [6]): 46
- EC50 of cytotoxicity (CD22 [7]): 12.7 pM
